Experiments:
SEC = biological target: the molecule itself; test: SEC
AUC = biological target: the molecule itself; test: AUC

B1: α-mDelNT, N-terminal half of mouse α-Delphilin (aa 1-558) (domain or fragment, UniProt Q0QWG9-2 1-558, looked up)
chain: MSCLGIFIPKKHRARFDEVVSQGLLGKLCRARRAQGAQRLRRSRSEERPERLLVSTRASAAPRRPDEPPPRKATSLLGGRTGPGGPRRTVRVYKGNKSFGFTLRGHGPVWIESVLPGSPAENASLKSGDRILFLNGLDMRNCSHDKVVSMLQGSGAMPTLVVEEGPVPFASDSDSLDSPTRASALTSLQWVADILPSSIRVQGRTFSQQLDHLLTPPERYGVCRALERFFQHRNIDTLIVDVYPVLDTPAKQVLWQFLYQLLTYEEQELCQEKIACFLGYTAMTEPESSLDLEPESTPEPTPEPQPRSSLRASSMCRRSLRSQGLETSLSCGPGDCPEMPLPLIPGERQAGDGTSLPETPNPKMMSAVYAELESRLNSSFKGKIGTMSKSRASPPVPSLVGTSGPRTLSGVSWPSDRLLPSPCYDPLCSGGLASPSSSESHPYASLDSSRAPSPQPGLGSIHADSPPSPDPIRPPSRRKLFAFSRPVRSRDTDRFLDALSEQLGPRLSIVDDFLTPENDYEEMSFHDDQGSFVTNERSSASECVSSSEEGSSLTYSSI
stoichiometry N (SEC): 7 ± 1 subunits | stoichiometry N (AUC): 6

Reference: publication PMC6004577 (Molecular Biology of the Cell, 2018)
